Results from patent publication US20250339501A1, “COMPOSITIONS AND METHODS FOR TREATING METABOLIC DISEASE” (The Regents of the University of California, priority 2021, published 2025).
“Also recorded” adds a separate entry of the source.

How the values were obtained:
mitochondrial complex I = assay: Complex I activity of isolated liver mitochondria from treated HFD-fed mice; format: in vivo, mouse
JNK = assay: TNFα-induced JNK phosphorylation in HepG2 cells; format: cell-based; conditions: human HepG2 liver cells
Text: As described above, Dj1 administration stimulates AMPK phosphorylation in the liver cells. However, elevated AMPK phosphorylation in vivo was not observed (data not shown). Numerous studies have reported that the c-Jun N terminal kinase (JNK) is critical to the development of steatosis and chronic liver injury in NAFLD (22-25). […] However, not all MAPK pathways were activated. For example, phosphorylation of p42 was not altered by tDj1 treatment (FIG. 6O). Both rDj1 and tDj1 suppressed TNFα and Anisomycin-induced JNK (p54 and p46) phosphorylation in human HepG2 and mouse AML12 liver cells, respectively (FIGS. 6C-6D).

HFD-fed mice = assay: rDj1 or tDj1 intravenous every other day for 14 days in HFD-fed mice; format: in vivo, mouse
Experimental: (§1) C57BL/10cSn-Dmd^mdx/J (001801, mdx) and C57BL/10ScSnJ (000476, WT) mice were ordered directly from The Jackson Laboratory. Different ages of mdx and WT mice were obtained. Animals were weaned 21 days after birth and had free access to food and water and were housed on 12 h light-dark cycle. C57BL/6J males were introduced to a normal diet (NC, Research Diets D15100601) or high-fat diet (HFD, Research Diets D12331), and maintained on a diet for the indicated time. The HFD diet derives 58% of its kilocalories (kcal) from fat (soybean and coconut oil), 25.5% from carbohydrates (sucrose and maltodextrin), and 16.4% from protein (casein). NASH model mice were fed for up to 28 weeks with the NASH diet (Envigo, TD.120528) and 42% fructose (Sigma, F0127) in the water (1,2). The NASH diet is composed of 405.36 g/Kg sucrose and 12.5 g/Kg cholesterol. Recombinant mouse Dj1 protein (Novus, NBP2-59523) or truncated mouse Dj1 (tDj1, GenScript) protein was intravenously injected every day for 5 days or every other day for 2 weeks. Skeletal muscle-specific Park7 knockout mice were generated by crossing Park7 flox mice with Myl1-cre mice (JAX, #024713). Mice were raised in microisolator cages with a 12 h: 12 h light: dark cycle. All procedures were performed in accordance with the Guide for Care and Use of Laboratory Animals of the National Institutes of Health, and were approved by the Animal Subjects Committee of the University of California, Los Angeles.
Cryosections (10-μm thick transverse sections of frozen muscle cut in a cryostat (Leica) at −20° C.) were subjected to hematoxylin & eosin (H&E) staining (10, 54). Liver tissues were fixed in phosphate-buffered 10% formalin and embedded in paraffin wax. Sections were cut and stained with H&E.
Mouse serum Dj1 and CK were measured by mouse Park7/DJ-1 DuoSet ELISA (DY8136, R&D systems) and mouse CKMB/Creatine Kinase MB ELISA Kit (LS-F5745, LSBio) respectively. Mouse Serum AST and ALT were measured by AST activity assay kit (Sigma, MAK055) and ALT activity assay kit (Sigma, MAK052) respectively.
Plasma and liver NEFA, Cholesterol, and Triglyceride were analyzed by their respective kits (FUJIFILM Wako Diagnostics)
About 80 mg of liver samples were homogenized and sonicated in PBS (pH 7.4) for lipid extraction. An internal standard mixture (ISTD) and CHCl3:methanol (2:1) were added to the samples before being vortexed, mixed, sonicated, and centrifuged. The supernatant containing the lipid was removed and dried, the lipids were resuspended in ethanol and then sonicated.
Dj1 is a highly conserved protein that is ubiquitously expressed in most mammalian tissues. It belongs to the Dj1/ThiJ/PfpI family chaperones, and its expression is induced by oxidative stress (20,21). To determine whether the PfpI domain of Dj1 exerts a similar role as the full-length Dj1 protein (rDj1) in liver cells, truncated Dj1 (tDj1) comprising of only the PfpI domain was purified (FIG. 5O). HFD-fed mice were intravenous injected with rDj1 or tDj1 every other day for 14 days.

[1] = Intravital imaging of IRDye 800CW-labeled Dj1 after tail-vein injection; format: in vivo, mouse; conditions: WT mice
Experimental: Recombinant mouse Dj1 protein (NBP2-59523, Novus) were labeled with near-infrared dyes using IRDye 800CW protein labeling kit-Low MW (Li-COR Biosciences) as described in the manufacturer's instructions. 10 μg of labeled Dj1 protein was injected into wild-type C57BL/6J mouse through the tail vein. The mice were imaged at the indicated time using an IVIS Spectrum (PerkinElmer). For tissue analysis, recipient mice were euthanized by cervical dislocation, and tissues were then dissected and imaged. Fluorescence was detected using excitation and emission filters at 745 nm and 800 nm, respectively.
(§2) Myokines contribute to whole-body metabolism by directly signaling to distant organs (15-18). To determine which organs Dj1 targets, WT mice were tail-vein injected with a recombinant Dj1 (rDj1) protein labeled with the near-infrared fluorescent dye IRDye 800CW, and the fluorescent signals were tracked using an optical imaging system (FIGS. 3I, 3J). A robust fluorescent signal could be detected within 5 minutes post-injection. […] Considering that the reagents injected through tail-vein often nonspecifically target the liver, fluorescent-labeled rDj1 was used to determine whether Dj1 could bind to the plasma membrane of liver cells. rDj1 was labeled with Alex 488 and added into the medium of mouse liver cells (AML12 cells) at the indicated time.

mitochondrial complex II = assay: Complex II activity of isolated liver mitochondria from treated HFD-fed mice; format: in vivo, mouse
AML12 cells = assay: Fluorescent-labeled rDj1 binding to plasma membrane of liver cells; format: cell-based, mouse; conditions: Alex 488-labeled rDj1 added to medium, fluorescent microscopy
Experimental: as §2

NC-fed C57BL/6J mice = assay: rDj1 tail-vein injection daily for 5 days in NC-fed mice; format: in vivo, mouse; conditions: 0.15 mg/kg/day IV for 5 days
Experimental: as §1, with “All procedures were performed in accordance with the Guide for Care and Use of Laboratory Animals of the National Institutes of Health, and were approved by the Animal Subjects Committee of the University of California, Los Angeles.” left out
Plasma and liver NEFA, Cholesterol, and Triglyceride were analyzed by their respective kits (FUJIFILM Wako Diagnostics) […]

B1: rDj1: full-length recombinant Dj1 protein; mouse protein (Novus, NBP2-59523) injected in mice, human protein used in HepG2 cells (protein, UniProt Q99LX0 1-189, looked up)
chain: MASKRALVILAKGAEEMETVIPVDVMRRAGIKVTVAGLAGKDPVQCSRDVMICPDTSLEDAKTQGPYDVVVLPGGNLGAQNLSESPMVKEILKEQESRKGLIAAICAGPTALLAHEVGFGCKVTTHPLAKDKMMNGSHYSYSESRVEKDGLILTSRGPGTSFEFALAIVEALVGKDMANQVKAPLVLKD
modifications: full-length
notes: full-length recombinant Dj1 protein; mouse protein (Novus, NBP2-59523) injected in mice, human protein used in HepG2 cells
Mitochondrial complex I
  mitochondrial complex I activity: Enhanced
JNK
  TNFα-induced JNK (p54 and p46) phosphorylation: suppressed; also recorded: inhibits
HFD-fed mice
  level of TG in the liver: significantly reduced
  liver histology, lipid accumulation: less lipid accumulation
  plasma ALT levels: reducing
  plasma AST levels: reducing
[1]; 4 hours post-injection, tail-vein
  organs in which most fluorescent signals accumulated: accumulated in the liver, kidney, and urine
[1]; IRDye 800CW-labeled rDj1, tail-vein
  time until robust fluorescent signal detected post-injection: ≤ 5 min
Mitochondrial complex II
  mitochondrial complex II activity: Enhanced
AML12 cells
  localization of labeled rDj1 on liver cells: colocalized with the plasma membrane
NC-fed C57BL/6J mice
  plasma cholesterol levels: significantly reduced
  plasma non-esterified fatty acids (NEFA): significantly reduced
